How the values were obtained:
[1] = tested on: C2C12 cells expressing GFP-MG53; assay: Repair of acute membrane damage: translocation to microelectrode injury site; type: cell-based, murine; details: C2C12 cells; acute membrane damage
Description: To follow the process of intracellular vesicle translocation associated with repair of acute membrane damage, GFP-MG53 fusion protein was expressed in C2C12 myoblast cells (FIG. 21a). […]
Cell culture—The C2C12 murine myoblast cell line used for all studies was purchased from the American Type Culture Collection (Manassas, Va.). Cells were grown in a humidified environment at 37° C. and 5% CO2 in DMEM medium for C2C12 or Ham's F12 medium for CHO cells supplemented with 10% fetal bovine serum, 100 units/ml penicillin and 100 ug/ml streptomycin. In order to induce myotube differentiation, C2C12 myoblasts were grown to confluence and the medium was switched to DMEM containing 2% horse serum, penicillin (100 U/ml), streptomycin (100 μg/ml). For transient transfections, C2C12 myoblasts or CHO cells were plated at 70% confluence in glass-bottom dishes. After 24 hours, cells were transfected with plasmids described above using GeneJammer reagent (Stratagene). Cells were visualized by live cell confocal imaging at 24-48 hours after transfection or at times indicated for individual experiments. In some experiments, C2C12 myoblasts were allowed to differentiate into myotubes for the indicated time before observation.
Live cell imaging—To monitor intracellular trafficking of GFP-MG53 either CHO or C2C12 cells were cultured in glass-bottom dishes (Bioptechs Inc.) and transfected with the plasmids described above. Fluorescence images (512×512) were captured at 3.18 s/frame using a BioRad 2100 Radiance laser scanning confocal microscope with a 63×1.3NA oil immersion objective.

mg53−/− myotubes = assay: Membrane repair in transfected mg53−/− myotubes; type: cell-based, mice
Description: The entry of FM4-64, a red-shifted variant of FM1-43, was used as an index of membrane repair capacity in mg53−/− myotubes transfected with GFP-MG53 and GFP-C242A. Following UV-bleaching of the green fluorescence, rapid translocation of GFP-MG53 took place at the injury site, whereas GFP-C242A remained static due to its defective oligomerization properties (FIG. 16E, 17A).
Similar defects with GFP-C29L were also observed in C2C12 myotubes (FIG. 18e, middle).

[2] = tested on: Human gastric adenocarcinoma (AGS) cells; assay: GFP-MG53 translocation after microelectrode or saponin damage, AGS; type: cell-based; details: microelectrode or 0.005% saponin
Description: (§1) MG53 can translocate to membrane repair sites in gastric cells. Human gastric adenocarcinoma (AGS) cells were transfected with GFP-MG53 and then subjected to mechanical membrane damage by microelectrode needle penetration (top) or treatment with 0.005% saponin to permeabilize the membrane (bottom) (FIG. 45). Translocation of GFP-MG53 to the injury site (arrow) was monitored by live cell confocal microscopy.

Mouse primary astrocytes = assay: GFP-MG53 translocation after microelectrode or saponin damage, astrocytes; type: cell-based; details: microelectrode or 0.005% saponin
Description: as §1, with “neural” for “gastric”, “Mouse primary astrocytes” for “Human gastric adenocarcinoma (AGS) cells”, “46).” for “45).”

[3] = tested on: Human C38 airway epithelial cells; assay: GFP-MG53 translocation after microelectrode or saponin damage, C38; type: cell-based; details: microelectrode or 0.005% saponin
Description: as §1, with “airway epithelial” for “gastric”, “C38 airway epithelial” for “gastric adenocarcinoma (AGS)”, “47).” for “45).”

[4] = tested on: Mouse leukaemic monocyte macrophage (RAW 264.7) cells; assay: GFP-MG53 translocation after microelectrode or saponin damage, RAW 264.7; type: cell-based; details: microelectrode or 0.005% saponin
Description: as §1, with “immune” for “gastric”, “Mouse leukaemic monocyte macrophage (RAW 264.7)” for “Human gastric adenocarcinoma (AGS)”, “49).” for “45).”

[5] = tested on: human embryonic palatal mesenchymal (HEPM) dental cells; assay: GFP-MG53 translocation after microelectrode or saponin damage, HEPM; type: cell-based; details: microelectrode or saponin detergent
Description: (§2) MG53 can patch the plasma membrane in many different human cell types and prevent cell death. To test if exogenous MG53 can recapitulate membrane resealing function in non-muscle cell types, we used either adenovirus or liposome-based transfection methods to express GFP-MG53 in a number of different cell types. In all cell types tested, MG53 performed in a similar fashion as that seen in muscle cells. Here we illustrate these effects in immortalized human cell lines, including HEK293 (not shown) and human embryonic palatal mesenchymal (HEPM) dental cells (FIG. 43), as well as primary cultures of human keratinocytes (FIG. 42). […] The function of MG53 appears to be essential to allow membrane patching and survival of muscle cells following injury.

[6] = tested on: primary cultures of human keratinocytes; assay: GFP-MG53 translocation after microelectrode or saponin damage, keratinocytes; type: cell-based; details: microelectrode or saponin detergent
Description: as §2

B1: WT: wild type MG53 as GFP fusion protein expressed in cells (protein)
chain: MSAAPGLLRQELSCPLCLQLFDAPVTAECGHSFCRACLIRVAGEPAADGTVACPCCQAPTRPQALSTNLQLSRLVEGLAQVPQGHCEEHLDPLSIYCEQDRTLVCGVCASLGSHRGHRLLPAAEAQARLKTQLPQQKMQLQEACMRKEKTVAVLEHQLVEVEETVRQFRGAVGEQLGKMRMFLAALESSLDREAERVRGDAGVALRRELSSLNSYLEQLRQMEKVLEEVADKPQTEFLMKFCLVTSRLQKILSESPPPARLDIQLPVISDDFKFQVWKKMFRALMPALEELTFDPSSAHPSLVVSSSGRRVECSDQKAPPAGEDTRQFDKAVAVVAQQLLSQGEHYWEVEVGDKPRWALGVMAADASRRGRLHAVPSQGLWLLGLRDGKILEAHVEAKEPRALRTPERPPARIGLYLSFADGVLAFYDASNPDVLTPIFSFHERLPGPVYPIFDVCWHDKGKNAQPLLLVGPEQEQA
modifications: left off: large carriers
notes: wild type MG53 as GFP fusion protein expressed in cells
[1]
  translocation to injury site and membrane repair function of GFP fusion protein: rapid accumulation
mg53−/− myotubes; primary cultured mg53−/− myotubes
  translocation to the plasma membrane following injury: could translocate to the plasma membrane following injury
mg53−/− myotubes; transfected mg53−/− myotubes, UV injury
  entry of FM4-64 (membrane repair capacity): Significantly less entry of FM4-64
[2]
  translocation after cell membrane damage: translocation of MG53 to the plasma membrane
Mouse primary astrocytes
  translocation after cell membrane damage: translocation of MG53 to the plasma membrane
[3]
  translocation after cell membrane damage: translocation of MG53 to the plasma membrane
[4]
  translocation after cell membrane damage: translocation of MG53 to the plasma membrane
[5]
  translocation after membrane damage: effectively translocates to the plasma membrane
[6]
  translocation after membrane damage: effectively translocates to the plasma membrane

Reference: patent US9458465B2, “Compositions and methods to modulate cell membrane resealing” (RUTGERS, THE STATE UNIVERSITY OF NEW JERSEY, priority 2007, dated 2016)
